Read-outs that look alike come from different tables or passages of the source.
How the values were obtained:
[1] = target: SARS-CoV-2 Spike RBD (SARS-CoV-2), P0DTC2
[2] = target: SARS-CoV-2 Spike RBD (SARS-CoV-2), P0DTC2; remark: listed apart in the source
[3] = target: SARS-CoV-2 Spike RBD (SARS-CoV-2), P0DTC2; remark: listed apart in the source
[4] = target: SARS-CoV-2 Spike RBD (SARS-CoV-2), P0DTC2; remark: listed apart in the source
[5] = target: SARS-CoV-2 Spike RBD (SARS-CoV-2), P0DTC2; remark: listed apart in the source
[6] = target: SARS-CoV-2 Spike RBD (SARS-CoV-2), P0DTC2; remark: listed apart in the source
[7] = target: SARS-CoV-2 Spike RBD (SARS-CoV-2), P0DTC2; remark: listed apart in the source
[8] = target: SARS-CoV-2 Spike RBD (SARS-CoV-2), P0DTC2; remark: listed apart in the source
[9] = target: SARS-CoV-2 Spike RBD (SARS-CoV-2), P0DTC2; remark: listed apart in the source
[10] = target: SARS-CoV-2 Spike RBD (SARS-CoV-2), P0DTC2; remark: listed apart in the source
[11] = target: SARS-CoV-2 Spike RBD (SARS-CoV-2), P0DTC2; remark: listed apart in the source
[12] = target: SARS-CoV-2 Spike RBD (SARS-CoV-2), P0DTC2; remark: listed apart in the source
[13] = target: SARS-CoV-2 Spike RBD (SARS-CoV-2), P0DTC2; remark: listed apart in the source
[14] = target: SARS-CoV-2 Spike RBD (SARS-CoV-2), P0DTC2; remark: listed apart in the source
[15] = target: SARS-CoV-2 Spike RBD (SARS-CoV-2), P0DTC2; remark: listed apart in the source
[16] = target: SARS-CoV-2 Spike RBD (SARS-CoV-2), P0DTC2; remark: listed apart in the source
[17] = target: SARS-CoV-2 Spike RBD (SARS-CoV-2), P0DTC2; remark: listed apart in the source
[18] = target: SARS-CoV-2 Spike RBD (SARS-CoV-2), P0DTC2; remark: listed apart in the source
[19] = target: SARS-CoV-2 Spike RBD (SARS-CoV-2), P0DTC2; remark: listed apart in the source
[20] = target: SARS-CoV-2 Spike RBD (SARS-CoV-2), P0DTC2; remark: listed apart in the source
[21] = target: SARS-CoV-2 Spike RBD (SARS-CoV-2), P0DTC2; remark: listed apart in the source
[22] = target: SARS-CoV-2 Spike RBD (SARS-CoV-2), P0DTC2; remark: listed apart in the source
[23] = target: SARS-CoV-2 Spike RBD (SARS-CoV-2), P0DTC2; remark: listed apart in the source
[24] = target: SARS-CoV-2 Spike RBD (SARS-CoV-2), P0DTC2; remark: listed apart in the source
[25] = target: SARS-CoV-2 Spike RBD (SARS-CoV-2), P0DTC2; remark: listed apart in the source
[26] = target: SARS-CoV-2 Spike RBD (SARS-CoV-2), P0DTC2; remark: listed apart in the source
[27] = target: SARS-CoV-2 Spike RBD (SARS-CoV-2), P0DTC2; remark: listed apart in the source

Adjusted Binding Rate [1]: 7.41 nm/s
Adjusted Binding Rate [2]: 7.1 nm/s
Adjusted Binding Rate [3]: 8.31 nm/s
Adjusted Binding Rate [4]: 9.51 nm/s
Adjusted Binding Rate [5]: 7.34 nm/s
Adjusted Binding Rate [6]: 6.42 nm/s
Adjusted Binding Rate [7]: 34.6 nm/s
Adjusted Binding Rate [8]: 2.44 nm/s
Adjusted Binding Rate [9]: 4.3 nm/s
Adjusted Binding Rate [10]: 2.1 nm/s
Adjusted Binding Rate [11]: 31.9 nm/s
Adjusted Binding Rate [12]: 2.12 nm/s
Adjusted Binding Rate [13]: 6.36 nm/s
Adjusted Binding Rate [14]: 2.88 nm/s
Adjusted Binding Rate [15]: 34 nm/s
Adjusted Binding Rate [16]: 3.35 nm/s
Adjusted Binding Rate [17]: 5.39 nm/s
Adjusted Binding Rate [18]: 7.3 nm/s
Adjusted Binding Rate [19]: 22 nm/s
Adjusted Binding Rate [20]: 5.39 nm/s
Adjusted Binding Rate [21]: 32.8 nm/s
Adjusted Binding Rate [22]: 3.73 nm/s
Adjusted Binding Rate [23]: 14.3 nm/s
Adjusted Binding Rate [24]: 4.91 nm/s
Adjusted Binding Rate [25]: 19.4 nm/s
Adjusted Binding Rate [26]: 5.5 nm/s
Adjusted Binding Rate [27]: 3.79 nm/s
B1: R2G3-His (peptide)
chain: GGGGAMGSEGDKTCPDGYEHTCGCIGGCGCKRSACIGALCCQASLGGWLSDGETYTGGGGSGGGGSHHHHHH
modifications: not checked

From patent US20260201020A1, “METHODS FOR EXPRESSION OF FUSION-FREE BOVINE ULTRALONG CDR3 SCAFFOLD” (priority 2022, published 2026)
